US20250289906A1, “MODULATION OF EXTRACELLULAR KINASE ACTIVITY AND FUNCTION FOR TREATMENT OF PAIN AND NEURODEGENERATIVE/NEUROIMMUNE DISEASE” (BOARD OF REGENTS, THE UNIVERSITY OF TEXAS SYSTEM, priority 2024, published 2025)

B1: VLK: active recombinant Vertebrate Lonesome Kinase (VLK/PKDCC), GST-tagged, purified from BL21 cells (protein)
chain: PRPGQSPEPSPAPGPGRRGGRGELARQIRARYEEVQRYSRGGPGPGAGRPERRRLMDLAPGGPGLPRPRPPWARPLSDGAPGWPPAPGPGSPGPGPRLGCAALRNVSGAQYMGSGYTKAVYRVRLPGGAAVALKAVDFSGHDLGSCVREFGVRRGCYRLAAHKLLKEMVLLERLRHPNVLQLYGYCYQDSEDIPDTLTTITELGAPVEMIQLLQTSWEDRFRICLSLGRLLHHLAHSPLGSVTLLDFRPRQFVLVDGELKVTDLDDARVEETPCAGSTDCILEFPARNFTLPCSAQGWCEGMNEKRNLYNAYRFFFTYLLPHSAPPSLRPLLDSIVNATGELAWGVDETLAQLEKVLHLYRSGQYLQNSTASSSTEYQCIPDSTIPQEDYRCWPSYHHGSCLLSVFNLAEAVDVCESHAQCRAFVVTNQTTWTGRQLVFFKTGWSQVVPDPNKTTYVKASG

Key:
mice [1] = test: Intrathecal administration, von Frey mechanical withdrawal thresholds; assay type: in vivo, mouse
Experimental: Behavior. Mechanical Withdrawal Thresholds were determined using von Frey Filament testing, following the method of (48). Animals were habituated to plexiglass chambers (11.4×7.6×7.6 cm) suspended on wire mesh racks. Baseline withdrawal thresholds were measured before experimental treatments, and subsequent testing was done at various timepoints indicated in each figure. Mechanical sensitivity was determined by applying von Frey filaments to the plantar aspect of the hind paws, and a response was indicated by flicking or withdrawal of the paw. For mice subjected to hindpaw incision surgeries, filaments were instead applied to the heel of the hindpaw near the site of injury but avoiding scar tissue.
(§1) Intrathecal injections were performed as previously described under isoflurane anesthesia (6). Drugs were administered in a 5 μL volume with a Hamilton syringe. Drugs were diluted in sterile saline. Heat denaturation was done by heating proteins at 70° C. for 30 mins. VLK, KD-VLK, DIA1, FAM69c and denatured controls were administered at concentrations of 0.1 mg/mL PAP was administered at 250 mU (12). APV was administered at 0.2 mg/mL.

mice [2] = test: Intrathecal administration, Mouse Grimace Scale scoring; assay type: in vivo
Experimental: Mouse grimace scoring was conducted using the Mouse Grimace Scale (MGS) described by (49). After acclimating to the suspended plexiglass chambers for an hour, mice were scored according to the MGS by blinded experimenters at baseline and post treatment time points which are indicated in each figure. The grimace scores were averaged by group at each time point and plotted respectively.
as §1

neuronal cFos expression = test: cFos/NeuN staining of lumbar spinal cord dorsal horn after intrathecal administration; assay type: in vivo, mouse
Experimental: cFos and NeuN staining of free-floating tissue sections. Adult mice were euthanized by isoflurane inhalation. Lumbar spinal cords were dissected and drop fixed in 10% formalin for 2 hours, cryoprotected, embedded in OCT (Fisher #1437365) and frozen on dry ice. Tissues were cryostat sectioned at […]. Tissues were blocked in 0.1M Phosphate buffer with 10% Normal Goat Serum and 0.3% Triton-X and incubated in cFos and NeuN primary antibodies for 48 hours at 4° C. Secondary antibodies were incubated for 2 hours at room temperature. Sections were slide mounted and cover slipped with Prolong Gold Antifade. Images were taken on an Olympus Fluoview FV1000 confocal microscope at 20× magnification. cFos^+ cell counts were carried out using Imaris software.
as §1

EphB2-NMDAR interaction = biological target: T1, EphB2-NMDAR interaction (Homo sapiens, UniProt P29323); test: Proximity ligation assay (PLA) of EphB2-NMDAR in transfected HEK293T cells; assay type: cell-based; conditions: non-permeabilized HEK293T cells, 100 ng recombinant protein, 45 minutes
T1 sequence (P29323 19-1055): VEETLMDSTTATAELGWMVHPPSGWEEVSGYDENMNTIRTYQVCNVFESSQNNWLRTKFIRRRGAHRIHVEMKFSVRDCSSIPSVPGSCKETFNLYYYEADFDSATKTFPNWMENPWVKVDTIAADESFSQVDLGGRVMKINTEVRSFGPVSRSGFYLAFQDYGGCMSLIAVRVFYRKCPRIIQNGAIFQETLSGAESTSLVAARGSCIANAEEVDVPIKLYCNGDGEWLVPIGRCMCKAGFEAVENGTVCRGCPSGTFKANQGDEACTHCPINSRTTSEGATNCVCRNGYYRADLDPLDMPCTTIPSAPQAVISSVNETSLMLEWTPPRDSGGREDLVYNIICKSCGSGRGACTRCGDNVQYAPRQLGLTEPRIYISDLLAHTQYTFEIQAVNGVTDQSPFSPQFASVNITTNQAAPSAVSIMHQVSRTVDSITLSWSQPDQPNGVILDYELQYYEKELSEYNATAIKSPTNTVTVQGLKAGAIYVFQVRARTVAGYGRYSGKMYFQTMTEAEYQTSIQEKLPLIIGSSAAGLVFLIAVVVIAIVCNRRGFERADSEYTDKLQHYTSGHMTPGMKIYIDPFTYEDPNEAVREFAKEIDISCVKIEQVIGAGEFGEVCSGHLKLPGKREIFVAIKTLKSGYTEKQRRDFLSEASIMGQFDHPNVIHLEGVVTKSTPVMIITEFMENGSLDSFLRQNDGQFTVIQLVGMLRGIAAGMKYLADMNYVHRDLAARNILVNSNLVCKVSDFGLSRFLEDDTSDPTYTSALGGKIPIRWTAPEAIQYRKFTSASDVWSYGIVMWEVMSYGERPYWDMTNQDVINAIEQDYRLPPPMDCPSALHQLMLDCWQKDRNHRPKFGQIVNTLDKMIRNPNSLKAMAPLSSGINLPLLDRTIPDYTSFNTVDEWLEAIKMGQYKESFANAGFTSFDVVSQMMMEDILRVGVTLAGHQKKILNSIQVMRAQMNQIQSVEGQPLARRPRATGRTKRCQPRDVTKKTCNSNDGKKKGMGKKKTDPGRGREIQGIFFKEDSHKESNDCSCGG
Experimental: Recombinant protein—HEK293T cells were treated with 100 ng recombinant VLK, Fam69C, or DIA1. Synaptosomes were treated with 100 ng recombinant VLK. 1 mM ATP (Cat #A9187; Sigma) was applied as indicated. Recombinant PAP treatment was applied at 100 ng.
Proximity Ligation Assay (PLA). As previously described, PLA experiments on HEK293T cells, mouse brain, and human spinal cord synaptosomes were performed (4). Synaptosome PLA combined with vGlut1 immunostaining was also previously described (4).

[3] = tested on: endogenous EphB2-NMDAR interaction; test: EphB2/GluN1 co-immunoprecipitation in untransfected cultured cortical neurons; assay type: cell-based; conditions: untransfected rat cortical neurons, 45 min
Experimental: Primary neuronal culture and transfection. Primary neuronal cultures were derived from embryonic day 17-18 (E17-18) rat cerebral cortex and maintained as described previously (4, 6). 8×10^6 neurons were plated for 10 cm dishes and 1×10^6 neurons were plated per well of 6 well dishes for biochemical assays. 2×10^5 neurons were plated on glass bottom dishes for live cell imaging experiments. As previously described, neuronal cultures were transfected using Lipofectamine 2000 (4, 6).
Western Blotting, Immunoprecipitation (IP) and Co-IP. HEK293T cells and cultured neurons were lysed in RIPA buffer to generate protein lysates. Cortices of postnatal day 35 (P35) transgenic mice Pkdcc^flox/flox CaMKII^Cre/+ and its WT littermate controls were also lysed using RIPA buffer and an equal amount of protein was used to perform IP. Pooled dorsal horns from Pkdcc^flox/flox Pirt^Cre/+ uninjured mice and their WTlittermate controls were lysed in RIPA. Following lysis, an additional Percoll gradient spin was carried out to remove myelin and unwanted cellular debris (37) and an equal amount of protein was used to perform IP. For conditioned ACSF IP, ACSF was filtered through a […] syringe filter (Millipore, cat #SLGV004SL) and incubated with antibody for 2 h at 4° C. followed by addition of Protein-G beads and incubation overnight at 4° C. […]

[4] = biological target: T2, EphB2 extracellular domain (Homo sapiens, UniProt P29323); test: In vitro cell-free kinase assay; assay type: biochemical; conditions: 100 ng kinase, 200 ng EphB2 ectodomain, ATP, 37° C., 30 min
T2 construct: purified recombinant protein fragment with EphB2 extracellular domain (EphB2 (200 ng), active; Millipore); purchased Millipore
T2 sequence (P29323 19-543 limits assumed): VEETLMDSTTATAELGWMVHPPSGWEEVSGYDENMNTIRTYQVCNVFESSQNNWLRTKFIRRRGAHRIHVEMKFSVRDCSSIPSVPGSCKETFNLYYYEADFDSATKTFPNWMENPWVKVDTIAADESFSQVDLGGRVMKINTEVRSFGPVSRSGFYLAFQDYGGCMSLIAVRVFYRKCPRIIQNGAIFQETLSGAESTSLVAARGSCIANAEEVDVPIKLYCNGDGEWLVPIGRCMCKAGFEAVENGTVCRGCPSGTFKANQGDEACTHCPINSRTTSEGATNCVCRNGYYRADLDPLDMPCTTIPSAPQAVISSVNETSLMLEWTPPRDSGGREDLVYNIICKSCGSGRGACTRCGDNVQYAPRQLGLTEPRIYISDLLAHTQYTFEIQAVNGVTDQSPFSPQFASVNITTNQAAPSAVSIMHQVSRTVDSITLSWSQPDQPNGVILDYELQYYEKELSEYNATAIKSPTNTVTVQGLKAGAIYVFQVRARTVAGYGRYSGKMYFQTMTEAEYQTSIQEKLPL
Experimental: In vitro Kinase assay. For the in vitro kinase assay purified recombinant protein fragment with EphB2 extracellular domain (EphB2 (200 ng), active; Millipore) and active VLK (100 ng), VLK-KD (100 ng), Fam69C (100 ng), DIA1 (100 ng) was used. The kinase reaction was started by adding 10 mM MnCl2, 10 mM MgAc, and 100 μM ATP in ACSF buffer. After 30 min of incubation at 37° C., phosphorylated proteins were separated by SDS-PAGE and analyzed by western blotting with anti-phosphotyrosine antibody (PY99) and EphB2. This protocol was also previously described (6)

[5] = agent given intrathecally before or together with VLK
[6] = intrathecal, 0.1 mg/mL in 5 μL, kinase given alone

Molecule	VLK-induced mechanical sensitivity (mice [1]; [5])	VLK-induced grimacing (mice [2]; [5])	VLK-induced neuronal cFos expression (neuronal cFos expression; VLK+AP5 intrathecal)	mechanical thresholds (von Frey) (mice [1]; [6])	grimacing (grimace scores, affective pain) (mice [2]; [6])	neuronal cFos expression (cFos+ cells) (neuronal cFos expression; intrathecal VLK alone)	EphB2-NMDAR interaction on the cell surface (PLA) (EphB2-NMDAR interaction; listed as rVLK)	EphB2-NMDAR interaction on the cell surface (PLA) (EphB2-NMDAR interaction; listed as recombinant VLK)	endogenous EphB2-NMDAR interaction (co-IP GluN1 with EphB2) [3]	tyrosine phosphorylation of EphB2 ectodomain [4]
NC(CCCP(=O)(O)O)C(=O)O (stereo not shown) [AP5, reference compound]	blocked the VLK-induced pain phenotype	blocked the VLK-induced pain phenotype	blocked							
B1				sharp drop in mechanical thresholds	increased grimacing	significant increase in neuronal cFos expression	induces the EphB2-NMDAR interaction on the cell surface	induced the EphB2-NMDAR interaction on the cell surface	induces the endogenous EphB2-NMDAR interaction	unique capacity to phosphorylate the EphB2 ectodomain
